In the supplement of paper PMC9170038:

Test system: MS2 coat protein
Experiment: apparent KD of MS2 coat protein; designed switch direction (-1 OFF switch, 1 ON switch): 1; higher = weaker reporter binding
Summary of the method: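 Designed RNA switches were transcribed on Illumina chips by stalled E. coli RNA polymerase and titrated with SNAP-549-labelled MS2 coat protein from 0.7 or 1.5 nM, doubling to 3 µM. Step length ran from 0.8–1.5 h at the lowest concentration to 10–20 min at the highest. The apparent KD is the median over clusters for each design, from curve-fitted normalised cluster fluorescence.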

[1] = Eterna round: R95, input ligand: FMN 200 uM
[2] = Eterna round: R95, input ligand: microRNA oligo, concentration not stated
[3] = Eterna round: R95, input ligand: none
[4] = input ligand: microRNA oligo, concentration not stated

| Sequence | apparent KD of MS2 coat protein [1] | apparent KD of MS2 coat protein [2] | apparent KD of MS2 coat protein [3] | apparent KD of MS2 coat protein (input ligand: FMN 200 uM) | apparent KD of MS2 coat protein [4] | apparent KD of MS2 coat protein (input ligand: none) |
| --- | --- | --- | --- | --- | --- | --- |
| GAGGAUGAUUUACAGGAUAUAUAGAAGAUGACAUGAGGAUCACCCAUGUAAGAGAAAGGAGGGAGAUAGAAGGGUAAGGGAUGUG [JR_SS2_Sub40] (puzzle: Same State 2) | 0.0372 µM | 0.0245 µM | 0.0423 µM |  |  |  |
| AGAUCAUGACGAGGAUAUCCGACAUGAGGAUCACCCAUGUAUGUCGGAGGACGCGUACGUCCAAUGGAGAAGGCGUCGUGGUCA [JL SSNG2 1.03] (Eterna round: R96, puzzle: Same State NG 2) |  |  |  | 0.0182 µM | 0.0737 µM | 0.0825 µM |
| ACAAGCUUUUUAGGAGAGAAAGGUGGGAUACAUGAGGAUCACCCAUGUAUGGUAGUUAAUAGUGGACCUCGUCUUAU [JR_SHM208A_Sub082] (puzzle: Sensor for hsa-mir-208a) | 0.0465 µM | 0.0217 µM | 0.0641 µM |  |  |  |
| AUAAGUUUGAUGCUCGUCUCUCCGUACAAACAUGAGGAUCACCCAUGUGGUCGGGAAGUAGCCCGGCCAGUAUGGCA [Arbitius] (puzzle: Sensor for hsa-mir-208a) | 0.0433 µM | 0.018 µM | 0.0473 µM |  |  |  |
| AUUAGUUAUGCAGGAUAUGAUUAACAUGAGGAUCACCCAUGUGGUGUUGUGAGUAAGGAGAGUGAUCAGAAGGGCAUUUUUUUU [JMF's solution 67] (Eterna round: R96, puzzle: Same State NG 2) |  |  |  | 0.462 µM | 0.264 µM | 0.644 µM |
| UACAUACGCGGAGGAUAUGGGCGAGGCGCAGAGGUCUGCGUCAAAACAUGAGGAUCACCCAUGUCCCAGAAGGCCGCGUAAACU [Enisen] (Eterna round: R96, puzzle: Same State NG 2) |  |  |  | 0.0157 µM | 0.0513 µM | 0.0734 µM |
| AGGCUCAGACGAGGAUAUAUGUCUCGAGCUUCGGCUCGAGACAUGAGGAUCACCCAUGUAAUAACAUAGAAGGUGUCUGAGCCA [SSNG2/1-C1] (Eterna round: R96, puzzle: Same State NG 2) |  |  |  | 0.0491 µM | 0.208 µM | 0.253 µM |
| GGUUUAGUCGAGUACCGUUCCACUCGAAAACAUGAGGAUCACCCAUGUUUGGGACAAGCUUUGCUCCUCGUCUUUCC [Inardiza] (puzzle: Sensor for hsa-mir-208a) | 0.0296 µM | 0.0648 µM | 0.0366 µM |  |  |  |
| AGUCCAGCCUGAGCUGGACAAAAGCAUGUACAUGAGGAUCACCCAUGUUCAUGUACAAGCUUUUUGCUCGUCUUGAA [salish99_208a_r3_095x] (Eterna round: R96, puzzle: Sensor for hsa-mir-208a) |  |  |  | 0.646 µM | 0.0161 µM | 0.572 µM |
| AGUCCAGCCUGAGCUGGACAAAAGCAUGUACAUGAGGAUCACCCAUGUCAUGUACAAGCUUUUUGCUCAUCUUAAAA [Mat - hsa-mir-208a - Mod of JL - D11] (Eterna round: R96, puzzle: Sensor for hsa-mir-208a) |  |  |  | 0.75 µM | 0.0118 µM | 0.886 µM |
| CACAAUCUAUCUGAGGAUAUCAUGAAAAAAACAUGAGGAUCACCCAUGUGCAGGAAAACUGCAUAUGAGAAGGCAGAUAGAUUGA [salish99_SS2_r3_016] (puzzle: Same State 2) | 0.038 µM | 1.26 µM | 0.678 µM |  |  |  |
| CGUCGUUUGAUAGGAUAUCGCUUUACAUGAGGAUCACCCAUGUUUACCUCGCUGGUUUUUCUUUCCGAGAAGGAUUCUGAUGUU [salish99_SSNG02_r04_030] (Eterna round: R96, puzzle: Same State NG 2) |  |  |  | 0.0434 µM | 0.0316 µM | 0.0404 µM |
| GUGGUCAGACAUGAGGAUCACCCAUGUGGAAUAAAUAACAGACAGGAUAUCUAAUAUAGGAUAUAGGAGAAGGGUCGAUUGGUG (Eterna round: R96, puzzle: Same State NG 3) |  |  |  |  | 0.0735 µM |  |
